Key:
Assay in all cases: cell-based or functional assay
HLA-A0101 = HLA-A0101 (human)
HLA-A0201 = HLA-A0201 (human)
HLA-B4701 = HLA-B4701 (human)
HLA-B5701 = HLA-B5701 (human)
HLA-B4001 = HLA-B4001 (human)
HLA-B3508 = HLA-B3508 (human)
HLA-C1701 = HLA-C1701 (human)
HLA-A2402 = HLA-A2402 (human)
HLA-A0203 = HLA-A0203 (human)
HLA-A6901 = HLA-A6901 (human)
HLA-B0702 = HLA-B0702 (human)
HLA-A3101 = HLA-A3101 (human)
HLA-B3501 = HLA-B3501 (human)
HLA-C0401 = HLA-C0401 (human)
HLA-B3503 = HLA-B3503 (human)
HLA-B4402 = HLA-B4402 (human)
HLA-B3802 = HLA-B3802 (human)
HLA-B3801 = HLA-B3801 (human)
HLA-B3901 = HLA-B3901 (human)
HLA-DRB10101 = HLA-DRB10101 (human)
HLA-DRB10402 = HLA-DRB10402 (human)
HLA-DRB10401 = HLA-DRB10401 (human)
HLA-DRB11104 = HLA-DRB11104 (human)

With NQGYSTVTF [WT1 146-154 NQGYSTVTF] the “Cytotoxic CTL response, % (at 50:1) E:T ratio vs WT1+ allo APC with restricting HLA allele loaded with WT1 peptide” value (HLA-A0101) was 15%.

For PGCLQQPEQ [WT1 (-47)-(-39) PGCLQQPEQ], the “Cytotoxic CTL response, % (at 50:1) E:T ratio vs WT1+ allo APC with restricting HLA allele loaded with WT1 peptide” value (HLA-A0201) was 27% and the “Cytotoxic CTL response, % (at 50:1) E:T ratio vs WT1+ allo APC with restricting HLA allele loaded with WT1 peptide” value (HLA-B4701) was 25%.

For KLGAAEASA [WT1 (-27)-(-19) KLGAAEASA], the “Cytotoxic CTL response, % (at 50:1) E:T ratio vs WT1+ allo APC with restricting HLA allele loaded with WT1 peptide” value (HLA-A0201) was 22%.

RDLNALLPAV [WT1 6-15 RDLNALLPAV] was tested, and the “Cytotoxic CTL response, % (at 50:1) E:T ratio vs WT1+ allo APC with restricting HLA allele loaded with WT1 peptide” value (HLA-A0201) was 31% and the “Cytotoxic CTL response, % (at 50:1) E:T ratio vs WT1+ allo APC with restricting HLA allele loaded with WT1 peptide” value (HLA-B5701) was 22%.

GGCALPVSGA [WT1 22-31 GGCALPVSGA] was tested, and the “Cytotoxic CTL response, % (at 50:1) E:T ratio vs WT1+ allo APC with restricting HLA allele loaded with WT1 peptide” value (HLA-A0201) was 25%.

With LDFAPPGAS [WT1 38-46 LDFAPPGAS] the “Cytotoxic CTL response, % (at 50:1) E:T ratio vs WT1+ allo APC with restricting HLA allele loaded with WT1 peptide” value (HLA-A0201) was 62%.

For SAYGSLGGP [WT1 46-54 SAYGSLGGP], the “Cytotoxic CTL response, % (at 50:1) E:T ratio vs WT1+ allo APC with restricting HLA allele loaded with WT1 peptide” value (HLA-B4001) was 24% and the “Cytotoxic CTL response, % (at 50:1) E:T ratio vs WT1+ allo APC with restricting HLA allele loaded with WT1 peptide” value (HLA-A0201) was 31%.

With PAPPPPPPP [WT1 58-66 PAPPPPPPP] the “Cytotoxic CTL response, % (at 50:1) E:T ratio vs WT1+ allo APC with restricting HLA allele loaded with WT1 peptide” value (HLA-A0201) was 18%.

With NLYQMTSQLE [WT1 225-233 NLYQMTSQLE] the “Cytotoxic CTL response, % (at 50:1) E:T ratio vs WT1+ allo APC with restricting HLA allele loaded with WT1 peptide” value (HLA-A0201) was 28%.

WNQMNLGAT [WT1 238-246 WNQMNLGAT] was tested, and the “Cytotoxic CTL response, % (at 50:1) E:T ratio vs WT1+ allo APC with restricting HLA allele loaded with WT1 peptide” value (HLA-B3508) was 21%, the “Cytotoxic CTL response, % (at 50:1) E:T ratio vs WT1+ allo APC with restricting HLA allele loaded with WT1 peptide” value (HLA-C1701) was 7% and the “Cytotoxic CTL response, % (at 50:1) E:T ratio vs WT1+ allo APC with restricting HLA allele loaded with WT1 peptide” value (HLA-A0201) was 21%. For the same binder, the “Cytotoxic CTL response, % (at 50:1) E:T ratio vs WT1+ allo APC with restricting HLA allele loaded with WT1 peptide” value (HLA-A0101) was 19%.

CTGSQALLL [WT1 209-217 CTGSQALLL] was tested, and the “Cytotoxic CTL response, % (at 50:1) E:T ratio vs WT1+ allo APC with restricting HLA allele loaded with WT1 peptide” value (HLA-A0101) was 26%.

In the case of NLGATLKGV [WT1 242-250 NLGATLKGV], the “Cytotoxic CTL response, % (at 50:1) E:T ratio vs WT1+ allo APC with restricting HLA allele loaded with WT1 peptide” value (HLA-A0201) is reported as 14% and the “Cytotoxic CTL response, % (at 50:1) E:T ratio vs WT1+ allo APC with restricting HLA allele loaded with WT1 peptide” value (HLA-A0101) is reported as 17%.

With RKFSRSDHL [WT1 390-398 RKFSRSDHL] the “Cytotoxic CTL response, % (at 50:1) E:T ratio vs WT1+ allo APC with restricting HLA allele loaded with WT1 peptide” value (HLA-A0201) was 27%.

For LKTHTTRTHT [WT1 398-406 …], the “Cytotoxic CTL response, % (at 50:1) E:T ratio vs WT1+ allo APC with restricting HLA allele loaded with WT1 peptide” value (HLA-A0201) was 22%.

For NMHQRNHTKL [WT1 436-445 NMHQRNHTKL], the “Cytotoxic CTL response, % (at 50:1) E:T ratio vs WT1+ allo APC with restricting HLA allele loaded with WT1 peptide” value (HLA-A2402) was 27%, the “Cytotoxic CTL response, % (at 50:1) E:T ratio vs WT1+ allo APC with restricting HLA allele loaded with WT1 peptide” value (HLA-B4001) was 26% and the “Cytotoxic CTL response, % (at 50:1) E:T ratio vs WT1+ allo APC with restricting HLA allele loaded with WT1 peptide” value (HLA-A0201) was 32%.

In the case of LGATLKGVAA [WT1 243-252 LGATLKGVAA], the “Cytotoxic CTL response, % (at 50:1) E:T ratio vs WT1+ allo APC with restricting HLA allele loaded with WT1 peptide” value (HLA-A0203) is reported as 21%.

NQMNLGATL [WT1 239-248 NQMNLGATL] was tested, and the “Cytotoxic CTL response, % (at 50:1) E:T ratio vs WT1+ allo APC with restricting HLA allele loaded with WT1 peptide” value (HLA-A2402) was 2%.

With TLGVAAGS [WT1 246-253 TLGVAAGS] the “Cytotoxic CTL response, % (at 50:1) E:T ratio vs WT1+ allo APC with restricting HLA allele loaded with WT1 peptide” value (HLA-A6901) was 57%.

For RQRPHPGAL [WT1 (-125)-(-117) RQRPHPGAL], the “Cytotoxic CTL response, % (at 50:1) E:T ratio vs WT1+ allo APC with restricting HLA allele loaded with WT1 peptide” value (HLA-B0702) was 53%.

For GALRNPTAC [WT1 (-119)-(-111) GALRNPTAC], the “Cytotoxic CTL response, % (at 50:1) E:T ratio vs WT1+ allo APC with restricting HLA allele loaded with WT1 peptide” value (HLA-B0702) was 22%.

For HFPPSLPPT [WT1 (-107)-(-99) HFPPSLPPT], the “Cytotoxic CTL response, % (at 50:1) E:T ratio vs WT1+ allo APC with restricting HLA allele loaded with WT1 peptide” value (HLA-A3101) was 27%.

With ASGSEPQQM [WT1 (-8)-(1) ASGSEPQQM] the “Cytotoxic CTL response, % (at 50:1) E:T ratio vs WT1+ allo APC with restricting HLA allele loaded with WT1 peptide” value (HLA-B3501) was 51%.

PSCLESQPA [WT1 135-143 PSCLESQPA] was tested, and the “Cytotoxic CTL response, % (at 50:1) E:T ratio vs WT1+ allo APC with restricting HLA allele loaded with WT1 peptide” value (HLA-B3501) was 21%.

With HSFKHEDPM [WT1 174-182 HSFKHEDPM] the “Cytotoxic CTL response, % (at 50:1) E:T ratio vs WT1+ allo APC with restricting HLA allele loaded with WT1 peptide” value (HLA-B3501) was 63%.

With GYESDNHTT [WT1 269-278 GYESDNHTT] the “Cytotoxic CTL response, % (at 50:1) E:T ratio vs WT1+ allo APC with restricting HLA allele loaded with WT1 peptide” value (HLA-B3501) was 23% and the “Cytotoxic CTL response, % (at 50:1) E:T ratio vs WT1+ allo APC with restricting HLA allele loaded with WT1 peptide” value (HLA-A0101) was 26%.

For FMCAYPGCNK [WT1 323-332 FMCAYPGCNK], the “Cytotoxic CTL response, % (at 50:1) E:T ratio vs WT1+ allo APC with restricting HLA allele loaded with WT1 peptide” value (HLA-B3501) was 61% and the “Cytotoxic CTL response, % (at 50:1) E:T ratio vs WT1+ allo APC with restricting HLA allele loaded with WT1 peptide” value (HLA-A0101) was 0%.

For SGQARMFPN [WT1 122-130 SGQARMFPN], the “Cytotoxic CTL response, % (at 50:1) E:T ratio vs WT1+ allo APC with restricting HLA allele loaded with WT1 peptide” value (HLA-C0401) was 41% and the “Cytotoxic CTL response, % (at 50:1) E:T ratio vs WT1+ allo APC with restricting HLA allele loaded with WT1 peptide” value (HLA-B3503) was 41%.

With RTPYSSDNL [WT1 218-226 RTPYSSDNL] the “Cytotoxic CTL response, % (at 50:1) E:T ratio vs WT1+ allo APC with restricting HLA allele loaded with WT1 peptide” value (HLA-B3503) was 31%.

For TDSCTGSQA [WT1 206-214 TDSCTGSQA], the “Cytotoxic CTL response, % (at 50:1) E:T ratio vs WT1+ allo APC with restricting HLA allele loaded with WT1 peptide” value (HLA-B4402) was 88% and the “Cytotoxic CTL response, % (at 50:1) E:T ratio vs WT1+ allo APC with restricting HLA allele loaded with WT1 peptide” value (HLA-B3802) was 53%.

HHAAQFPNH [WT1 166-174 HHAAQFPNH] was tested, and the “Cytotoxic CTL response, % (at 50:1) E:T ratio vs WT1+ allo APC with restricting HLA allele loaded with WT1 peptide” value (HLA-B3801) was 17%.

For GAAQWAPVL [WT1 30-38 GAAQWAPVL], the “Cytotoxic CTL response, % (at 50:1) E:T ratio vs WT1+ allo APC with restricting HLA allele loaded with WT1 peptide” value (HLA-B3901) was 19%.

For THSPTHPPR [WT1 (-99)-(-91) THSPTHPPR], the “Cytotoxic CTL response, % (at 50:1) E:T ratio vs WT1+ allo APC with restricting HLA allele loaded with WT1 peptide” value (HLA-B4001) was 31% and the “Cytotoxic CTL response, % (at 50:1) E:T ratio vs WT1+ allo APC with restricting HLA allele loaded with WT1 peptide” value (HLA-A0201) was 21%.

For CHTPTDSCT [WT1 202-210 CHTPTDSCT], the “Cytotoxic CTL response, % (at 50:1) E:T ratio vs WT1+ allo APC with restricting HLA allele loaded with WT1 peptide” value (HLA-B4402) was 19%.

For ACRYGPFGP [WT1 106-114 ACRYGPFGP], the “Cytotoxic CTL response, % (at 50:1) E:T ratio vs WT1+ allo APC with restricting HLA allele loaded with WT1 peptide” value (HLA-B4402) was 23%.

PGCLQQPEQQG [WT1 (-47)-(-37) PGCLQQPEQQG] was tested, and the “Cytotoxic CTL response, % (at 50:1) E:T ratio vs WT1+ allo APC with restricting HLA allele loaded with WT1 peptide” value (HLA-DRB10101) was 25%.

With LDFAPPGASAY [WT1 38-48 LDFAPPGASAY] the “Cytotoxic CTL response, % (at 50:1) E:T ratio vs WT1+ allo APC with restricting HLA allele loaded with WT1 peptide” value (HLA-DRB10402) was 71%.

In the case of CMTWNQMNLGATLKG [WT1 235-249 CMTWNQMNLGATLKG], the “Cytotoxic CTL response, % (at 50:1) E:T ratio vs WT1+ allo APC with restricting HLA allele loaded with WT1 peptide” value (HLA-DRB10402) is reported as 15%.

For KRPFMCAYPGC [WT1 320-334 KRPFMCAYPGC], the “Cytotoxic CTL response, % (at 50:1) E:T ratio vs WT1+ allo APC with restricting HLA allele loaded with WT1 peptide” value (HLA-DRB10401) was 0%.

With WNQMNLGATLK [WT1 238-248 WNQMNLGATLK] the “Cytotoxic CTL response, % (at 50:1) E:T ratio vs WT1+ allo APC with restricting HLA allele loaded with WT1 peptide” value (HLA-DRB11104) was 1%.

In the case of PLPHFPPSL [WT1 (-110)-(-102) PLPHFPPSL], the “Cytotoxic CTL response, % (at 50:1) E:T ratio vs WT1+ allo APC with restricting HLA allele loaded with WT1 peptide” value (HLA-A0201) is reported as 24%.

With AILDFLLLQ [WT1 (-75)-(-67) AILDFLLLQ] the “Cytotoxic CTL response, % (at 50:1) E:T ratio vs WT1+ allo APC with restricting HLA allele loaded with WT1 peptide” value (HLA-A0201) was 17%.

From patent US20170334951A1 (Memorial Sloan Kettering, published 2017)
